Data: patent US20060034860A1 (CELLVIR, published 2006)

Columns and labels:
[1] = target: T1, Casein Kinase 2, beta polypeptide (CSNK2B), prey47239, prey fragments (Human, UniProt P67870 2-215); test: yeast two-hybrid screen, bait PR_v1 (pB27), Human CEMC7 Random Primed prey library; table of bait-prey interactions
T1 construct: also called hCSNK2B; regulatory beta chain of CK2

[2] = target: T2, Human UBE1 (prey030679), prey fragments (Human, UniProt P22314 2-1058); test: yeast two-hybrid screen, bait PR_v1 (pB27), CEMC7 oligo dT primed cDNA prey library; table of bait-prey interactions
T2 sequence: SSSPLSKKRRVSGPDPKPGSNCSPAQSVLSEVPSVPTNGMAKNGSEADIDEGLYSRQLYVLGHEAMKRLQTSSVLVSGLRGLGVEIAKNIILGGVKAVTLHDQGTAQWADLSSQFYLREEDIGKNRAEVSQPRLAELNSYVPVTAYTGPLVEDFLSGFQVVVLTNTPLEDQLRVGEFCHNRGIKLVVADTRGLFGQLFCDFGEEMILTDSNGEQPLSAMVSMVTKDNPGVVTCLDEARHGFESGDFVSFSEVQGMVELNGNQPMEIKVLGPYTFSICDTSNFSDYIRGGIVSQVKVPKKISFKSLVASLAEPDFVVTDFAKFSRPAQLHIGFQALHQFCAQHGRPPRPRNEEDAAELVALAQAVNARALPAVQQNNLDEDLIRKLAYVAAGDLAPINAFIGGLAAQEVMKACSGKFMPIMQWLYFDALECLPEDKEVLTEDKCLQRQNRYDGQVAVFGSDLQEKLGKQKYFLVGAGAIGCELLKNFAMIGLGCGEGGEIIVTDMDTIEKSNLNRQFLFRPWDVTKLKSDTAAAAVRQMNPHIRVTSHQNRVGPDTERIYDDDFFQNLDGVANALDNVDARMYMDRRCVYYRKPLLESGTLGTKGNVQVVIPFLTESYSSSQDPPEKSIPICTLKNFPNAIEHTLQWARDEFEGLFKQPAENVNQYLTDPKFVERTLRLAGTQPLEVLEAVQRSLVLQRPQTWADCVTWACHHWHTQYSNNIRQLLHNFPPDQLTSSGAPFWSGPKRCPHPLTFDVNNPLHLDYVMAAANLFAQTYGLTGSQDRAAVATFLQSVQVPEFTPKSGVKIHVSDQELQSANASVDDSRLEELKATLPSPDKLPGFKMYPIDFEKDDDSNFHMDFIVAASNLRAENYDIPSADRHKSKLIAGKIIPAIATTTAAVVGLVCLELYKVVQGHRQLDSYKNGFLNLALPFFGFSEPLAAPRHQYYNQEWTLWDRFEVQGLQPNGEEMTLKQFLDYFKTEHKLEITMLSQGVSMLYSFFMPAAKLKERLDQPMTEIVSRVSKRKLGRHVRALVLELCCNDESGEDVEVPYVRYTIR

[3] = target: T3, Human AKAP1 (prey026778), A kinase anchor protein 1 (Human, UniProt Q92667 30-903); test: yeast two-hybrid screen, bait RT_v1, CEMC7 random primed cDNA prey library; table of bait-prey interactions
T3 construct: Prey fragments (vector pP6) in the primary screen
T3 sequence: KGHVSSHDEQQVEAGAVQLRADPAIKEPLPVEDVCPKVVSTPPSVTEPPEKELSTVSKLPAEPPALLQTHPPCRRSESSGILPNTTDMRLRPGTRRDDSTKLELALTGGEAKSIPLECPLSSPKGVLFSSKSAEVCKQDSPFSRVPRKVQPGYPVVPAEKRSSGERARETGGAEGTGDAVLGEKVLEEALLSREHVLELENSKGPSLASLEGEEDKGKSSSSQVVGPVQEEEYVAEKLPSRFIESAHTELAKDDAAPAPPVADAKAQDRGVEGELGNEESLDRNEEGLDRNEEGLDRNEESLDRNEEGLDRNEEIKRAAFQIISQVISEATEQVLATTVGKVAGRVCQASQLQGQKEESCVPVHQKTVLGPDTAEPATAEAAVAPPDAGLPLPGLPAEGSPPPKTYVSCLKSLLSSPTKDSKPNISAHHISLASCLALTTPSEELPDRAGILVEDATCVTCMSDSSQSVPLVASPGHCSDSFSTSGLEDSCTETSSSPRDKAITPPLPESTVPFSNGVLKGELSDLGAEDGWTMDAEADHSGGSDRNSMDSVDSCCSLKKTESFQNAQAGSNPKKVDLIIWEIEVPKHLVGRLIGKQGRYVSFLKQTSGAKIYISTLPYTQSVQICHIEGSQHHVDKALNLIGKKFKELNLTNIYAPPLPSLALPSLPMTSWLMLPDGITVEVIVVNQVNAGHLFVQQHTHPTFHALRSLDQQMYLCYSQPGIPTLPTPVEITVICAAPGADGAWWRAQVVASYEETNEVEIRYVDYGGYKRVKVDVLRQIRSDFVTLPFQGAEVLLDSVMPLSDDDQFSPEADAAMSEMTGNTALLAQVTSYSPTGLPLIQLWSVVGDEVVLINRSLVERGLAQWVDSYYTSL

[4] = target: T4, BRCA1 assoc. Prot.1 (BAP1), prey17662 / prey145885, prey fragments (Human, UniProt Q92560 1-729); test: yeast two-hybrid screen, bait NC_v1 (pB6), Human CEMC7 Random Primed prey library; table of bait-prey interactions
T4 construct: also called hBAP1; Ubiquitin Hydrolase
T4 sequence: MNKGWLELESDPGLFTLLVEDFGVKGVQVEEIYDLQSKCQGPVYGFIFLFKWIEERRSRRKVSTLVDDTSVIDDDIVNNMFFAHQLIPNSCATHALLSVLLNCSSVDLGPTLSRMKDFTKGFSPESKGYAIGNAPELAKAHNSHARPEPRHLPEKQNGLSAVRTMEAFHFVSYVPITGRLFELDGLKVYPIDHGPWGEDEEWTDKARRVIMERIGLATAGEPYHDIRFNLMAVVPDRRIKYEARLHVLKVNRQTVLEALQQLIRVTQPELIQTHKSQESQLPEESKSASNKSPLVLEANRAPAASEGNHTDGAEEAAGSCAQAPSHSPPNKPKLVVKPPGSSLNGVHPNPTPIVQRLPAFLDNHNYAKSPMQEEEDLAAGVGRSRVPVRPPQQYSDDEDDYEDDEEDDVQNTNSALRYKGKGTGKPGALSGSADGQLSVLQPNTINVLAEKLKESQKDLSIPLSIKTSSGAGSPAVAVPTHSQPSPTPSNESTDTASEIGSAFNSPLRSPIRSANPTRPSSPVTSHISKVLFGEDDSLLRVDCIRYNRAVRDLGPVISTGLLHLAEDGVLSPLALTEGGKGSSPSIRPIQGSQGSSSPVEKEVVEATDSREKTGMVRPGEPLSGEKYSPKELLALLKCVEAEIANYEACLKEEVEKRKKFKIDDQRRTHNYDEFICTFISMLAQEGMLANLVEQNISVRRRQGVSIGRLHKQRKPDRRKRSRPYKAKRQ

T1 sequence (P67870 2-215 limits assumed): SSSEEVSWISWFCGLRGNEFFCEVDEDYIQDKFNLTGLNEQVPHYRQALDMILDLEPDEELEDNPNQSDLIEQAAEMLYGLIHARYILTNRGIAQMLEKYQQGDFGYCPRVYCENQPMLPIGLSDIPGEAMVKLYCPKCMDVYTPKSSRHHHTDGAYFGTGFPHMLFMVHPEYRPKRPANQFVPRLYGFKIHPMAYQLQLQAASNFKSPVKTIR

B1: HIV-1 protease, bait PR_v1 (enzyme)
chain: not shown
binding result [1]: binds
binding result [2]: binds

B2: HIV-1 reverse transcriptase p66 subunit, bait RT_v1 (enzyme)
chain: not shown
notes: also called p66 RT; HIV-1 p66 RT
binding result [3]: binds

B3: HIV-1 Nucleocapsid NCp7, bait NC_v1 (other)
chain: MQRGNFRNQRKTVKCFNCGKEGHIAKNCRAPRKKGCWKCGKEGHQMKDCTERQAN
binding result [4]: binds
